Data: patent publication US20250255816A1, “POLYSULFIDE MICROPARTICLES AND USES THEREOF” (Vanderbilt University, priority 2022, published 2025)

Tests used:
[1] = test system: retinal reactive oxygen species (ROS); test: Retinal ROS levels by Amplex Red dye in mouse MOM model of glaucoma; design: species or system C57/B16 mice; conditions: intravitreal injection, 6 weeks post-MP injection, ex vivo
Method: (§1) Poly(propylene sulfide-co-ethylene sulfide) (PPSES) was synthesized using ring opening polymerization with an equimolar feed of each monomer. EPO-loaded MPs were formulated by first producing EPO-loaded dextran nanoparticles and loading these into PPSES MPs. The S/O/W technique was used to load EPO. To establish the microbead occlusion model (MOM, FIG. 10) of glaucoma, polystyrene beads were injected into the anterior chamber of C57/B16 mice. Saline-injected mice served as healthy controls. After 1 week, phosphate buffered saline (PBS)-free EPO, blank MPs, or EPO-loaded MPs were injected intravitreally. At 6 weeks post-MP injection, electroretinograms (ERGs) and visual evoked potential (VEP) tests were performed intravitally. Retinal tissue was evaluated ex vivo for EPO and ROS levels using ELISA and Amplex Red dye, respectively.

[2] = free protein, intravitreal; cited from earlier work
[3] = Retinal EPO levels by ELISA in mouse microbead occlusion model (MOM) of glaucoma; design: species or system C57/B16 mice; conditions: intravitreal injection, 6 weeks post-MP injection, ELISA of retinal tissue ex vivo
Method: as §1

## Erythropoietin [EPO]
[1]
  retinal ROS levels: Both groups outperformed free EPO
[2]
  half-life intravitreally: ~3 days
[3]
  retinal EPO levels (sustained EPO release): not different from PBS animals
